36 variants from the Human Domainome abundance scans (Beltran et al. 2025) can be followed below.

B1: V(D)J recombination-activating protein 2, residues 415 to 491; numbered along this chain, P55895 (parent)
chain: YWITCCPTCDVDINTWVPFYSTELNKPAMIYCSHGDGHWVHAQCMDLAERTLIHLSAGSNKYYCNEHVEIARALHTP

± gives the uncertainty stated by the source.

Variants of B1 are the subject of this series. As to the kind of experiment: abundance fitness (aPCA) (normalised: wild type 0, dead -1); higher = more abundant; growth selection in yeast, the domain comes from the species named. The settings on record: Homo sapiens.
Regarding YWITCCPTCNVDINTWVPFYSTELNKPAMIYCSHGDGHWVHAQCMDLAERTLIHLSAGSNKYYCNEHVEIARALHTP [D10N], the abundance fitness came to 0.033 ± 0.14.
In the case of YWITCCPTCMVDINTWVPFYSTELNKPAMIYCSHGDGHWVHAQCMDLAERTLIHLSAGSNKYYCNEHVEIARALHTP [D10M], the abundance fitness was -0.325 ± 0.47.
For YWITCCPTCAVDINTWVPFYSTELNKPAMIYCSHGDGHWVHAQCMDLAERTLIHLSAGSNKYYCNEHVEIARALHTP [D10A] the value was 0.065 ± 0.14; for YWITCCPTCRVDINTWVPFYSTELNKPAMIYCSHGDGHWVHAQCMDLAERTLIHLSAGSNKYYCNEHVEIARALHTP [D10R], 0.195 ± 0.17.
For YWITCCPTCGVDINTWVPFYSTELNKPAMIYCSHGDGHWVHAQCMDLAERTLIHLSAGSNKYYCNEHVEIARALHTP [D10G] the value was -0.03 ± 0.13; for YWITCCPTCVVDINTWVPFYSTELNKPAMIYCSHGDGHWVHAQCMDLAERTLIHLSAGSNKYYCNEHVEIARALHTP [D10V], 0.145 ± 0.19.
Next, YWITCCPTCQVDINTWVPFYSTELNKPAMIYCSHGDGHWVHAQCMDLAERTLIHLSAGSNKYYCNEHVEIARALHTP [D10Q]: 0.121 ± 0.21; YWITCCPTCSVDINTWVPFYSTELNKPAMIYCSHGDGHWVHAQCMDLAERTLIHLSAGSNKYYCNEHVEIARALHTP [D10S]: -0.114 ± 0.21.
In the case of YWITCCPTCKVDINTWVPFYSTELNKPAMIYCSHGDGHWVHAQCMDLAERTLIHLSAGSNKYYCNEHVEIARALHTP [D10K], the abundance fitness was -0.089 ± 0.18.
As for YWITCCPTTDVDINTWVPFYSTELNKPAMIYCSHGDGHWVHAQCMDLAERTLIHLSAGSNKYYCNEHVEIARALHTP [C9T], the abundance fitness was -0.809 ± 0.38.
For YWITCCPTQDVDINTWVPFYSTELNKPAMIYCSHGDGHWVHAQCMDLAERTLIHLSAGSNKYYCNEHVEIARALHTP [C9Q] the value was -0.175 ± 0.3; for YWITCCPTFDVDINTWVPFYSTELNKPAMIYCSHGDGHWVHAQCMDLAERTLIHLSAGSNKYYCNEHVEIARALHTP [C9F], -0.637 ± 0.26.
For YWITCCPTRDVDINTWVPFYSTELNKPAMIYCSHGDGHWVHAQCMDLAERTLIHLSAGSNKYYCNEHVEIARALHTP [C9R] the value was -0.668 ± 0.18; for YWITCCPTYDVDINTWVPFYSTELNKPAMIYCSHGDGHWVHAQCMDLAERTLIHLSAGSNKYYCNEHVEIARALHTP [C9Y], -0.739 ± 0.33; for YWITCCPTGDVDINTWVPFYSTELNKPAMIYCSHGDGHWVHAQCMDLAERTLIHLSAGSNKYYCNEHVEIARALHTP [C9G], -0.916 ± 0.5.
For YWITCCPTCDADINTWVPFYSTELNKPAMIYCSHGDGHWVHAQCMDLAERTLIHLSAGSNKYYCNEHVEIARALHTP [V11A], the abundance fitness was -0.741 ± 0.35.
For YWITCCPTCDSDINTWVPFYSTELNKPAMIYCSHGDGHWVHAQCMDLAERTLIHLSAGSNKYYCNEHVEIARALHTP [V11S] the value was -0.437 ± 0.14; for YWITCCPTCDMDINTWVPFYSTELNKPAMIYCSHGDGHWVHAQCMDLAERTLIHLSAGSNKYYCNEHVEIARALHTP [V11M], -0.264 ± 0.19; for YWITCCPTCDRDINTWVPFYSTELNKPAMIYCSHGDGHWVHAQCMDLAERTLIHLSAGSNKYYCNEHVEIARALHTP [V11R], -0.75 ± 0.37.
Next, YWITCCPTCDFDINTWVPFYSTELNKPAMIYCSHGDGHWVHAQCMDLAERTLIHLSAGSNKYYCNEHVEIARALHTP [V11F]: -0.386 ± 0.22; YWITCCPTCDTDINTWVPFYSTELNKPAMIYCSHGDGHWVHAQCMDLAERTLIHLSAGSNKYYCNEHVEIARALHTP [V11T]: -0.336 ± 0.13; YWITCCPTCDWDINTWVPFYSTELNKPAMIYCSHGDGHWVHAQCMDLAERTLIHLSAGSNKYYCNEHVEIARALHTP [V11W]: -0.178 ± 0.29.
As to YWITCCPTCDGDINTWVPFYSTELNKPAMIYCSHGDGHWVHAQCMDLAERTLIHLSAGSNKYYCNEHVEIARALHTP [V11G], the abundance fitness is -0.697 ± 0.14.
For YWITCCPTCDCDINTWVPFYSTELNKPAMIYCSHGDGHWVHAQCMDLAERTLIHLSAGSNKYYCNEHVEIARALHTP [V11C] the value was 0.012 ± 0.38; for YWITCCPTCDVMINTWVPFYSTELNKPAMIYCSHGDGHWVHAQCMDLAERTLIHLSAGSNKYYCNEHVEIARALHTP [D12M], 0.009 ± 0.14; for YWITCCPTCDVEINTWVPFYSTELNKPAMIYCSHGDGHWVHAQCMDLAERTLIHLSAGSNKYYCNEHVEIARALHTP [D12E], 0.083 ± 0.42.
As to YWITCCPTCDVSINTWVPFYSTELNKPAMIYCSHGDGHWVHAQCMDLAERTLIHLSAGSNKYYCNEHVEIARALHTP [D12S], the abundance fitness is -0.229 ± 0.22.
For YWITCCPTCDVLINTWVPFYSTELNKPAMIYCSHGDGHWVHAQCMDLAERTLIHLSAGSNKYYCNEHVEIARALHTP [D12L] the value was -0.332 ± 0.11; for YWITCCPTCDVPINTWVPFYSTELNKPAMIYCSHGDGHWVHAQCMDLAERTLIHLSAGSNKYYCNEHVEIARALHTP [D12P], -0.392 ± 0.21.
Next, YWITCCPTCDVGINTWVPFYSTELNKPAMIYCSHGDGHWVHAQCMDLAERTLIHLSAGSNKYYCNEHVEIARALHTP [D12G]: -0.04 ± 0.14.
As for YWITCCPTCDVRINTWVPFYSTELNKPAMIYCSHGDGHWVHAQCMDLAERTLIHLSAGSNKYYCNEHVEIARALHTP [D12R], the abundance fitness was determined as 0.107 ± 0.12.
For YWITCCPTCDVNINTWVPFYSTELNKPAMIYCSHGDGHWVHAQCMDLAERTLIHLSAGSNKYYCNEHVEIARALHTP [D12N] the value was -0.01 ± 0.37; for YWITCCPTCDVFINTWVPFYSTELNKPAMIYCSHGDGHWVHAQCMDLAERTLIHLSAGSNKYYCNEHVEIARALHTP [D12F], -0.244 ± 0.38.
Take YWITCCPTCDVVINTWVPFYSTELNKPAMIYCSHGDGHWVHAQCMDLAERTLIHLSAGSNKYYCNEHVEIARALHTP [D12V]: the abundance fitness was -0.304 ± 0.3.
For YWITCCPTCDVWINTWVPFYSTELNKPAMIYCSHGDGHWVHAQCMDLAERTLIHLSAGSNKYYCNEHVEIARALHTP [D12W] the value was -0.317 ± 0.28; for YWITCCPTCDVTINTWVPFYSTELNKPAMIYCSHGDGHWVHAQCMDLAERTLIHLSAGSNKYYCNEHVEIARALHTP [D12T], -0.226 ± 0.24.
